Laboratory results as given in patent US20050124539A1 (Takeda / Millennium, published 2005).
No end group written: not given here. *: point of attachment. 125I = [125I]*

B1: human homologue of GPR8 ligand peptide consisting of 23 residues (peptide)
peptide: WYKHVASPRYHTVGRAAGLLMGL
notes: also called hGPR8L(1-23); Human GPR8 ligand (1-23)
B2: [Phe^2, ^125I-Tyr^10]-Human GPR8 ligand (1-20) (peptide)
peptide: WFKHVASPRY(125I)HTVGRAAGLL
notes: Radioligand made from [Phe2]; also called labeled [Phe^2]; Human GPR8 ligand (1-20)

Experiments:
[1] = molecular target: T1, Human GPR8 receptor protein (human, UniProt P48146 1-333); assay: competition with [125I-Tyr10]-hGPR8L(1-23), membrane fraction of GPR8 expressing CHO cells
T1 construct: Full-length receptor expressed in CHO dhfr- cells (CHO/GPR8)
T1 sequence (P48146 whole entry): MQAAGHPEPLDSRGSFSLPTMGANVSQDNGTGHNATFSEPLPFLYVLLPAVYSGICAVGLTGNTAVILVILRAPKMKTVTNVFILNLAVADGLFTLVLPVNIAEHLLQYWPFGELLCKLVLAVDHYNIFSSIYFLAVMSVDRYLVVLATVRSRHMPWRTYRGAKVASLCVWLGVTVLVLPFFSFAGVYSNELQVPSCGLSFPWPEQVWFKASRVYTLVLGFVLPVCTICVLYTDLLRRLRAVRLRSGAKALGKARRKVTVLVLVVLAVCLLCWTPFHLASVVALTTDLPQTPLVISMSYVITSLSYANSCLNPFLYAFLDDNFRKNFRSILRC
Protocol: Cell membrane fraction prepared from Human GPR8 expressing cells was diluted to various concentration with assay buffer (25 mM Tris-HCl, 5 mM EDTA, 0.05% CHAPS (3-[(3-Cholamidopropyl) Dimethyl-Ammonio]-1-Propanesulfonate), 0.1% BSA, 0.25 mM PMSF, 1 μg/ml Pepstatin, 20 μg/ml Leupeptin, pH7.4), and 200 μl each of the diluent was dispensed into polypropilene test tube (Falcon 2053). In order to determine an amount of maximum binding (TB), […] of DMSO and 2 μl of 7 nM [¹²⁵I-Tyr²]-hGPR8L(1-23) or [¹²⁵I-Tyr¹⁰]-hGPR8L(1-23) were added to the membrane fraction solution. Further, in order to determine a non-specific binding (NSB), 2 μt of 100 μM hGPR8L(1-23)/DMSO solution and 2 μl of 7 nM [¹²⁵I]-Tyr²]-hGPR8L(1-23) or [¹²⁵I-Tyr¹⁰]-hGPR8L(1-23) were added to the membrane fraction solution. The reaction was done at 25° C. for 60 minutes, and the reaction mixture was filtered by suction filtration using Whatman glassfilter (GF-F) treated with polyethyleneimine. After filtration, a radioactivity remaining on the filter was counted using γ-counter, and an amount of specific binding (SB) was estimated by subtracting an amount of non-specific binding from an amount of maximum binding. Since the specific binding in the case where [¹²⁵I-Tyr¹⁰]-hGPR8L(1-23) was used, was twice as much as that in the case where [¹²⁵1-Tyr²]-hGPR8L(1-23) was used, in practice, [¹²⁵I-Tyr¹⁰]-hGPR8L(1-23) was used in the assay. When the concentration of membrane fraction was changed, a specific binding of [¹²⁵I-Tyr¹⁰]-hGPR8L(1-23) was perceived depending on the concentration of membrane fraction.
A receptor binding activity of human- and porcine-homologue derivatives of GPR8 ligand peptide, wherein the synthesis method has been described in the specification, was measured using a membrane fraction of GPR8 expressing CHO cells and [¹²⁵-Tyr¹⁰]-hGPR8L(1-23) by the method described in Reference Example 43.

Human GPR7 [2] = molecular target: T2, Human GPR7 (human, UniProt P48145 1-328); assay: cell-based or functional assay
T2 sequence: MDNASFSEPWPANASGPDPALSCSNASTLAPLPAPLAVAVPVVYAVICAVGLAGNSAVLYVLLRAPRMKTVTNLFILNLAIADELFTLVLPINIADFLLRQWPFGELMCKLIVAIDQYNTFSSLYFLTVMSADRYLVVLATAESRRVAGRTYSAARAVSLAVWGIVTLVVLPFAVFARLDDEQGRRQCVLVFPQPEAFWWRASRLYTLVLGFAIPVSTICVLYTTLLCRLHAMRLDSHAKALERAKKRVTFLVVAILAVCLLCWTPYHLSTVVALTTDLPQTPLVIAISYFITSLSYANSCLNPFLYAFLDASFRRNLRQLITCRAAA

Human GPR7 [3] = molecular target: T2, Human GPR7; assay: cell-based or functional assay; remark: listed apart in the source
Human GPR7 [4] = molecular target: T2, Human GPR7; assay: competition with [Phe2, 125I-Tyr10]-Human GPR8 ligand (1-20), membrane fraction of GPR7 expressing CHO cells, 15 µg/ml
Protocol: In order to determine an amount of maximum binding, 2 μl of DMSO and 2 μl of 7 nM [Phe², ¹²⁵I-Tyr¹⁰]-Human GPR8 ligand (1-20) were added to the membrane fraction solution. Further, in order to determine a non-specific binding, 2 μl of 100 μM hGPR8L(1-23)/DMSO solution and 2 μl of 7 nM [Phe², ¹²⁵I-Tyr¹⁰]-Human GPR8 ligand (1-20) were added to the membrane fraction solution. The reaction was done at 25° C. for 75 minutes, and the reaction mixture was filtered by suction filtration using Whatman glassfilter (GF-F) treated with polyethyleneimine. After filtration, a radioactivity remaining on the filter was counted using γ-counter, and an amount of specific binding was estimated by subtracting an amount of non-specific binding from an amount of maximum binding. When the concentration of membrane fraction was changed, a specific binding of [Phe², ¹²⁵I-Tyr¹⁰]-Human GPR8 ligand (1-20) was perceived depending on the concentration of membrane fraction.
The inhibition of binding for GPR7 receptor or GPR8 receptor in the test sample (the inhibition rate (%)) is represented by the ratio of the values obtained by subtracting a radioactivity (X) remaining on the filter in the case where the test sample and of [Phe², ¹²⁵I-Tyr¹⁰]-Human GPR8 ligand (1-20) were added from the maximum binding (TB) to the specific binding (SB) ((TB−X)/SB×100(%)).
(§1) The IC₅₀ values were 0.13 nM and 0.039 nM, respectively. […]

[5] = molecular target: T3, TGR26, rat-derived G protein-coupled receptor protein (rat, UniProt Q56UD9 1-329); assay: competition with [125I-Tyr10]-hGPR8L(1-23), membrane fraction of TGR26 expressing CHO cells, 3 µg/ml
T3 construct: Expressed in CHO dhfr- cells from pAK-rGPR7; also called rat TGR26; TGR26 receptor
T3 sequence: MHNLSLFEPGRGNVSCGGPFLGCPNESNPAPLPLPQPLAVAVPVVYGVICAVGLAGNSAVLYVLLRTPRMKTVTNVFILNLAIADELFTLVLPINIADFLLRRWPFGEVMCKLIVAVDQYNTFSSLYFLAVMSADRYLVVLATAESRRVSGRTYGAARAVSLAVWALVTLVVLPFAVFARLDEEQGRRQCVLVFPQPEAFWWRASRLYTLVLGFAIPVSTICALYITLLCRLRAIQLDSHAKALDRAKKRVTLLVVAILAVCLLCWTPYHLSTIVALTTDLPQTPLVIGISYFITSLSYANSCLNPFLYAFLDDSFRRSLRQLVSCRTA
Protocol: Cell membrane fraction prepared from TGR26 expressing cells was diluted to various concentration with assay buffer (25 mM Tris-HCl, 5 mM EDTA, 0.05% CHAPS (3-[(3-Cholamidopropyl) Dimethyl-Ammonio]-1-Propanesulfonate), 0.1% BSA, 0.5 mM PMSF, 1 μg/ml Pepstatin, 20 μg/ml Leupeptin, 4 μg/ml E-64, pH7.4), and 200 μl each of the diluent was dispensed into polypropilene test tube (Falcon 2053). In order to determine an amount of maximum binding, 2 μl of DMSO and 2 μl of 7 nM [¹²⁵-Tyr¹⁰]-hGPR8L(1-23) were added to the membrane fraction solution. Further, in order to determine a non-specific binding, 2 μl of 100 μM hGPR8L(1-23)/DMSO solution and 2 μl of 7 nM [¹²⁵I]-Tyr¹⁰]-hGPR8L(1-23) were added to the membrane fraction solution. The reaction was done at 25° C. for 75 minutes, and the reaction mixture was filtered by suction filtration using Whatman glassfilter (GF-F) treated with polyethyleneimine. In addition, the filter was washed twice with 1.5 ml of washing buffer (25 mM Tris-HCl, 5 mM EDTA, 0.05% CHAPS, 0.1% BSA, pH7.4). After filtration, a radioactivity remaining on the filter was counted using γ-counter, and an amount of specific binding was estimated by subtracting an amount of non-specific binding from an amount of maximum binding. […]

[6] = molecular target: T1, Human GPR8 receptor protein; assay: radioligand filter binding, membrane fraction of GPR8 expressing CHO cells
Protocol: (§2) Cell membrane fractions prepared from GPR7 expressing CHO cells and GPR8 expressing CHO cells, were diluted to various concentration with assay buffer (25 mM Tris-HCl, 5 mM EDTA, 0.05% CHAPS, 0.1% BSA, 0.5 mM PMSF, 1 μg/ml Pepstatin, 4 μg/ml E-64, 20 μg/ml Leupeptin, pH7.4), and 200 μl each of the diluent was dispensed into polypropilene test tube (Falcon 2053). In order to determine an amount of maximum binding, 2 μl of DMSO and 2 μl of 7 nM [Phe², ¹²⁵I-Tyr¹⁰]-Human GPR8 ligand (1-20) were added to the membrane fraction solution. Further, in order to determine a non-specific binding, 2 μl of 100 μM hGPR8L(1-23)/DMSO solution and 2 μl of 7 nM [Phe², ¹²⁵I-Tyr¹⁰]-Human GPR8 ligand (1-20) were added to the membrane fraction solution. The reaction was done at 25° C. for 75 minutes, and the reaction mixture was filtered by suction filtration using Whatman glassfilter (GF-F) treated with polyethyleneimine. After filtration, a radioactivity remaining on the filter was counted using γ-counter, and an amount of specific binding was estimated by subtracting an amount of non-specific binding from an amount of maximum binding. When the concentration of membrane fraction was changed, a specific binding of [Phe², ¹²⁵I-Tyr¹⁰]-Human GPR8 ligand (1-20) was perceived depending on the concentration of membrane fraction.
as §1

Human GPR7 [7] = molecular target: T2, Human GPR7; assay: radioligand filter binding, membrane fraction of GPR7 expressing CHO cells
Protocol: as §2, §1

IC50 [1] [nM]	inhibition of intracellular cAMP production (IC50) (Human GPR7 [2]) [nM]	Promoting activity to GTPγS binding (EC50 nM) (Human GPR7 [3]) [nM]	IC50 (Human GPR7 [4]) [nM]	IC50 [5] [nM]	binding result [6]	binding result (Human GPR7 [7])	Binder
0.25	0.025	0.74	0.13	0.12			B1
					binds	binds	B2
